The labels stand for the following.
B1: Oregon Green-modified-RTLPPD (peptide)
peptide: VSNKYFSNIHW
modifications: linker N-C via L10 (R1 : -NH-p-phenylene-NH2); also: Oregon Green (5/6-isomer mix) label, site not certain (intended on phenylenediamine amine)
notes: RTLPPD reacted with Oregon Green isothiocyanate; also called Oregon Green-labeled-RTLPPD
B2: receptor targeting ligand-p-phenylenediamine derivative (RTLPPD) (peptide)
peptide: VSNKYFSNIHW
modifications: linker N-C via L10 (R1 : -NH-p-phenylene-NH2); also: cyclised by linker L10 between X1 N and X11 carbonyl
B3: RTLMPD (peptide)
peptide: VSNKYFSNIHW
modifications: linker N-C via L10 (R1 : -NH-m-phenylene-NH2); also: cyclised by linker L10 between X1 N and X11 carbonyl
notes: also called isomer of RTLPPD incorporating m-phenylenediamine (MPD)
B4: biotin-modified-RTLPPD (peptide)
peptide: VSNKYFSNIHW
modifications: linker N-C via L10 (R1 : -NH-p-phenylene-NH2); also: biotin-X (7-atom spacer) label, site not given here
notes: RTLPPD reacted with Biotin-X-sulfoNHS
B5: RTLOPD (peptide)
peptide: VSNKYFSNIHW
modifications: linker N-C via L10 (R1 : -NH-o-phenylene-NH2); also: cyclised by linker L10 between X1 N and X11 carbonyl
notes: also called isomer of RTLPPD incorporating o-phenylenediamine (OPD)
B6: Å36 (peptide)
peptide: VSNKYFSNIHW
modifications: linker N-C via L15 (R1 : phenyl); also: cyclised by linker L15 between X1 N and X11 carbonyl
notes: also called A36; cyclic peptide Å36

Bridges are numbered along the chain shown (N, C = ends). L10 (R1 : -NH-m-phenylene-NH2) = linker L10: -CO-CH2-NH-CO-CH2-CH2-CH(CO-NH-CH2-COR1)-NH- with R1 = -NH-m-phenylene-NH2; L10 (R1 : -NH-o-phenylene-NH2) = linker L10: -CO-CH2-NH-CO-CH2-CH2-CH(CO-NH-CH2-COR1)-NH- with R1 = -NH-o-phenylene-NH2; L10 (R1 : -NH-p-phenylene-NH2) = linker L10: -CO-CH2-NH-CO-CH2-CH2-CH(CO-NH-CH2-COR1)-NH- with R1 = -NH-p-phenylene-NH2; L15 (R1 : phenyl) = linker L15: -CO-CH2-NH-CO-CH2-CH2-CH(CO-NH-CH2-CO-NH-R1)-NH- with R1 = phenyl (anilide)

The term IC50 denotes the concentration that inhibits the measured activity by half. Low values mean greater potency in that assay, high ones weaker potency in that assay. Usually Kd stands for the concentration at which binding is half-saturated. Higher therefore signals a looser complex.

T1 sequence (Q03405 23-305): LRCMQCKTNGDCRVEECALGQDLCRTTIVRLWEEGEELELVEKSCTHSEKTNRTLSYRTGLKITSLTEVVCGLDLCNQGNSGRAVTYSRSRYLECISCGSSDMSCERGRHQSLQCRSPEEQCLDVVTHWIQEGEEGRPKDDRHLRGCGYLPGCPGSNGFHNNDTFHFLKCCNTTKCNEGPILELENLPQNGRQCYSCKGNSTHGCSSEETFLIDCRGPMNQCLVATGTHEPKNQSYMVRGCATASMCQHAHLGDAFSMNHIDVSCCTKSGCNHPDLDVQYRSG

The first assay concerns the target T1, uPAR expressed on cells (RKO human colon carcinoma cells, HeLa cells, stimulated HUVEC) (human, UniProt Q03405 23-305).
T1 construct: whole, on cells; GPI-anchored receptor on whole cells
Nature of the assay: competition with 0.2 nM [125I]DFP-uPA on RKO cells, 4 C. As for the experimental part:
The compounds of the invention were tested for their binding to uPAR by measuring their ability to inhibit the binding of [¹²⁵I]DFP-uPA (catalytically inactivated high molecular weight uPA) to uPAR expressed by RKO (human colon carcinoma) cells. Cells (about 5×10⁴/well) were plated (in MEM with Earle's salts/10% FBS+antibiotics) in 24-well plates, then incubated in a humid 5% CO₂ atmosphere until the cells reach 70% confluence. Catalytically inactivated high molecular weight uPA (DFP-uPA) was radioiodinated using Iodo-gen® (Pierce) to a specific activity of about 250,000 cpm/mg. The cell-containing plates were then chilled on ice and the cells were washed twice (5 minutes each) with cold PBS/0.05% Tween-80. Test compounds were serially diluted in cold PBS/0.1% BSA/0.01% Tween-80 and added to each well to a final volume of 0.3 mL 10 minutes prior to the addition of the [¹²⁵I]DFP-uPA. Each well then receives 9500 cpm of [¹²⁵I]DFP-uPA at a final concentration of 0.2 nM. The plates were incubated at 4° C. for 2 hrs, after which time the cells were washed 3× (5 minutes each) with cold PBS/0.05% Tween-80. NaOH (1N; 0.5 mL) was added to each well to lyse the cells, the contents of each well were aspirated and the total counts in each well determined using a gamma counter. Each compound was tested in triplicate and the results are expressed as a percentage of the total radioactivity measured in wells containing [¹²⁵I]DFP-uPA alone, which is taken to represent maximum (100%) binding.
RTLPPD inhibited the binding of [¹²⁵I]DFP-uPA with an IC₅₀ of approximately 5 nM (FIG. 3). Modification of RTLPPD with Oregon Green shifted the IC₅₀ to approximately 800 nM (FIG. 3) and modification with biotin shifted the IC₅₀ to approximately 1.1 μM (FIG. 4). RTLMPD and RTLOPD inhibited the binding of [¹²⁵I]DFP-uPA to RKO cells with an IC₅₀ of approximately 50 and 100 nM , respectively (FIG. 3).
In the case of B1, the half-inhibitory concentration (IC50) is about 800 nM.

With B2, the IC50 is about 5 nM. Same read-out and setting: in the case of B3 it was about 50 nM; in that of B4, about 1100 nM; in that of B5, about 100 nM.

The target in the next assay is T1, uPAR expressed on cells (RKO human …). Nature of the assay: whole-cell competition with [125I]DFP-uPA on HeLa cells, as the method is described; competition for binding to HeLa cells, not BIAcor. The procedure: HeLa cells (about 5×10⁴/well) were plated in medium MEM with Earle's salts/10% FBS+antibiotics) in 24-well plates, then incubated in a humid 5% CO₂ atmosphere until the cells reached 70% confluence. Catalytically inactivated high molecular weight uPA (DFP-uPA) labeled with radioactive ¹²⁵I (specific activity 250,000 cpm/mg) served as the uPAR label. Plates in which the cells were incubated were chilled on ice and the cells were washed twice (5 minutes each) with cold PBS/0.05% Tween-80. DFP-UPA and Å36 were serially diluted in cold PBS/0.1% BSA/0.01% Tween-80 and added to each well to a final volume of 0.3 mL 10 minutes prior to the addition of [¹²⁵I]DFP-UPA. Each well then received 9500 cpm of [¹²⁵I]DFP-UPA at a final concentration of 0.2 nM). The plates were incubated at 4° C. for 2 hrs, after which the cells are washed 3× (5 minutes each) with cold PBS/0.05% Tween-80. Cells were lysed by addition of NaOH (1N) 0.5 mL/well for 5 minutes at room temperature or until all the cells in each well were lysed by microscopic examination. The contents of each well were aspirated, and the total counts in each well were determined using a gamma counter. Each compound was tested in triplicate and the results were expressed as a percentage of the total radioactivity measured in wells containing [¹²⁵I]DFP-uPA alone, which is taken to represent maximum (100%) binding.
B6 registered a dissociation constant (Kd) of 30 nM.

Source of the values: patent US20040204348A1 (ANGSTROM PHARMACEUTICALS, published 2004).
